Values of other authors as cited in patent US12305200B2, “Methods and compositions for vault nanoparticle immobilization of therapeutic molecules and for vault targeting” (AUKERA, INC., priority 2017, dated 2025).

Biological target: GRP-R (Homo sapiens, UniProt P30550)
Conditions: Accardo et al., EJNMMI Research 2016

Sequence of GRP-R (P30550 whole entry): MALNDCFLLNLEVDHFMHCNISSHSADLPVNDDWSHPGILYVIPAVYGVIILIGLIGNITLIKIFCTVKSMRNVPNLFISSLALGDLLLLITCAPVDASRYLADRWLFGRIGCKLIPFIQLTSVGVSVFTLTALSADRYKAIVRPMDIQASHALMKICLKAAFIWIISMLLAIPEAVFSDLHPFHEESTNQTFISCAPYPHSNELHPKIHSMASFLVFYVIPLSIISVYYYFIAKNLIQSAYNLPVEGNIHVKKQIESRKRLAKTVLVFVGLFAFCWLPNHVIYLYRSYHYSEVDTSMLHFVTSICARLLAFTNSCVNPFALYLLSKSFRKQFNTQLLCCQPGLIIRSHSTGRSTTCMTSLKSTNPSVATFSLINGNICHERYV

Substance: Gin-Trp-Ala-Val-Gly-His-Leu-Met (SEQ ID NO.: 3)-NH2 [8-amino acid peptide of the ligand GRP]
- affinity for the GRP-R: has been found to have affinity
